This experiment addresses CFP-MtbDarG MD (mCerulean-fused macrodomain of Mycobacterium tuberculosis DNA ADP-ribosylglycohydrolase DarG) (M. tuberculosis) (UniProt O53605). The experiment can be described thus: FRET or BRET. A general note: In BRET a luciferase serves as donor, and the signal depends on an acceptor being close.

Chain of PARylated YFP-GAP (mCitrine fused to a C-terminal Gαi 10-mer peptide, poly-ADP-ribosylated) (P63096 whole entry, looked up, the tested form may be a part): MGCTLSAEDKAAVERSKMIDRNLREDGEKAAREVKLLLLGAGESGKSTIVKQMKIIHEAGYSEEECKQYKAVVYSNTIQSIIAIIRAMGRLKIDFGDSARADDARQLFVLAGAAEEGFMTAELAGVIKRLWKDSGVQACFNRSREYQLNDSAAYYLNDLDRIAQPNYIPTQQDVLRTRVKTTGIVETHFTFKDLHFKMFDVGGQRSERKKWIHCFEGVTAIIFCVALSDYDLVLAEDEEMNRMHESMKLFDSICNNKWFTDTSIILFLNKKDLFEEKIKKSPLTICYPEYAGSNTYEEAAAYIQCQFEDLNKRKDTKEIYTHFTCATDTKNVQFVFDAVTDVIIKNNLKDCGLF
Chain of CFP-MtbDarG MD (mCerulean-fused macrodomain of Mycobacterium tuberculosis DNA ADP-ribosylglycohydrolase DarG) (M. tuberculosis) (O53605 1-155): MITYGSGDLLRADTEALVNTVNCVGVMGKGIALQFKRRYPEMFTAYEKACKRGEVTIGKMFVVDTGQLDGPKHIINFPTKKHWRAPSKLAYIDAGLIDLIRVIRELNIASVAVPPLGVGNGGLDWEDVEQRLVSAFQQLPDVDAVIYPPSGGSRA

Consider “PARylated YFP-GAP (mCitrine fused to a C-terminal Gαi 10-mer peptide, poly-ADP-ribosylated) (from UniProt P63096 345-354)”, for which the Kd came out at 316 nM.

For orientation: Kd means the equilibrium constant for the complex coming apart.

(Values after publication doi:10.1101/2025.07.02.662713.)
